In the supplement of paper PMC10126150:
± gives the standard deviation of the averaged measurements.

Tested on: ATP
Experiment: switch fluorescence ratio, 500 uM ATP over buffer (Cy3 cluster intensity, sum of 5 cycles each) (fold (ratio)); higher = stronger signal-on switching upon ATP binding; sequences stand for … in TCGTCGGCAGCGTCAGATGTGTATAAGAGACAGTTTTTTTTTTTTTTTTTTTTTTTTT…TC
Conditions: aptamer strand: ATP DNA aptamer (quencher-CACCTGGGGGAGTATTGCGGAGGAAGG + anchor), 100 nM annealed; ATP concentration: 500 uM
Outline: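 For every switch-domain sequence, the fluorescence ratio is the mean of per-cluster values, each being summed target-cycle Cy3 intensity over summed buffer-cycle Cy3 intensity. Clusters outside 100-1000 RFU were excluded. On a modified Illumina MiSeq flow-cell, the Cy3-labelled switching-strand clusters were annealed to 100 nM quencher-labelled ATP aptamer, imaged in selection buffer and then after 15 min with 500 uM ATP at 22 °C. Five such cycles were run, with NaOH stripping and re-annealing between them.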
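Note: ATP exposure 15 min at 22 °C before imaging.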

| Sequence | switch fluorescence ratio |
| --- | --- |
| TAAAAGTATG | 0.969 ± 0.054 |
| TAAAATGAGA | 0.98 ± 0.031 |
| TAAAATGCAT | 0.979 ± 0.024 |
| TAAAATGGAA | 1.05 ± 0.1 |
| TAAAATGGTG | 1.01 ± 0.035 |
| TAAAATTCGG | 1.01 ± 0.018 |
| TAAACAAACG | 1.12 ± 0.028 |
| TAAACACAGG | 1.16 ± 0.044 |
| TAAACACCTG | 1.02 ± 0.095 |
| TAAACCGAGC | 1.73 ± 0.27 |
| TAAACGAGGG | 1.01 ± 0.014 |
| TAAACGGGGT | 1.03 ± 0.032 |
| TAAACGGTGC | 1.07 ± 0.023 |
| TAAACTGCGA | 1.07 ± 0.054 |
| TAAAGAAAAA | 1.02 ± 0.029 |
| TAAAGAAAGC | 0.9755 ± 0.0029 |
| TAAAGAAGGG | 0.988 ± 0.033 |
| TAAAGAGGTG | 1.11 ± 0.053 |
| TAAAGCAGGC | 1.11 ± 0.14 |
| TAAAGCGAAC | 1.29 ± 0.098 |
| TAAAGCGTTG | 0.9656 ± 0.0077 |
| TAAAGGACTT | 1.05 ± 0.087 |
| TAAAGGAGAT | 1.03 ± 0.032 |

| Sequence | switch fluorescence ratio |
| --- | --- |
| TAAAGGAGTT | 0.981 ± 0.032 |
| TAAAGGCTAT | 1 ± 0.026 |
| TAAAGGGCGA | 0.999 ± 0.027 |
| TAAAGGGCGT | 0.967 ± 0.021 |
| TAAAGGGGAT | 1.08 ± 0.16 |
| TAAAGGGTG | 1.08 ± 0.037 |
| TAAAGGTAAT | 1.01 ± 0.024 |
| TAAAGGTTGT | 0.994 ± 0.055 |
| TAAAGTTATT | 1.0106 ± 0.00041 |
| TAAAGTTCTG | 1.01 ± 0.023 |
| TAAATAGGGT | 1.05 ± 0.12 |
| TAAATAGTAC | 1.07 ± 0.032 |
| TAAATCCGGA | 0.995 ± 0.06 |
| TAAATCTAGA | 1.016 ± 0.01 |
| TAAATGAGGA | 1.03 ± 0.047 |
| TAAATGGA | 1.04 ± 0.039 |
| TAAATGTTAA | 0.9889 ± 0.0051 |
| TAAATTACTA | 1.05 ± 0.04 |
| TAAATTAGTT | 1.01 ± 0.017 |
| TAAATTGCTT | 0.991 ± 0.012 |
| TAAATTTGTA | 0.99 ± 0.028 |
| TAAATTTTAA | 0.9818 ± 0.0082 |
| TAAATTTTTA | 0.986 ± 0.052 |

| Sequence | switch fluorescence ratio |
| --- | --- |
| TAAATTTTTG | 1.07 ± 0.097 |
| TAACAGAGGT | 1.01 ± 0.033 |
| TAACAGATGG | 1.01 ± 0.029 |
| TAACAGGTGG | 1.02 ± 0.036 |
| TAACAGTTAA | 1.03 ± 0.027 |
| TAACATAATT | 1 ± 0.023 |
| TAACCACCGG | 1.03 ± 0.011 |
| TAACCGATGT | 1.01 ± 0.016 |
| TAACGCTAGA | 1.06 ± 0.03 |
| TAACGCTTAA | 1.09 ± 0.033 |
| TAACGGCGTG | 1.03 ± 0.021 |
| TAACGGGTCG | 0.937 ± 0.06 |
| TAACGTAGGA | 1.07 ± 0.031 |
| TAACGTCCAG | 0.978 ± 0.012 |
| TAACTATATA | 1.06 ± 0.014 |
| TAACTGCATT | 1.16 ± 0.14 |
| TAACTGGTAC | 1.13 ± 0.05 |
| TAACTGTGAT | 0.988 ± 0.025 |
| TAACTTTCTT | 0.987 ± 0.025 |
| TAAGAAAAGT | 0.9745 ± 0.0014 |
| TAAGAAATGT | 1.04 ± 0.04 |
| TAAGAAGGTC | 1.01 ± 0.054 |
| TAAGAAGTAT | 0.999 ± 0.034 |

| Sequence | switch fluorescence ratio |
| --- | --- |
| TAAGAGAAGT | 1.018 ± 0.0073 |
| TAAGAGATAG | 0.976 ± 0.012 |
| TAAGAGCCAT | 1.04 ± 0.013 |
| TAAGAGGAGG | 0.98337 ± 0.00017 |
| TAAGAGGAGT | 0.985 ± 0.013 |
| TAAGAGGATC | 1.0083 ± 6.4e-05 |
| TAAGAGGTGT | 1.04 ± 0.062 |
| TAAGAGTAAT | 0.985 ± 0.042 |
| TAAGATATTA | 0.998 ± 0.02 |
| TAAGATGGAG | 1 ± 0.021 |
| TAAGATGGGG | 0.9623 ± 0.0054 |
| TAAGATGTTT | 0.957 ± 0.034 |
| TAAGCGCAGA | 1.01 ± 0.03 |
| TAAGCGCCAT | 1.029 ± 0.0049 |
| TAAGCGGCGA | 0.973 ± 0.013 |
| TAAGCTGGTA | 0.995 ± 0.036 |
| TAAGGAAAGG | 0.982 ± 0.027 |
| TAAGGAATCG | 1 ± 0.043 |
| TAAGGAATGT | 1.04 ± 0.0038 |
| TAAGGCATTG | 0.996 ± 0.016 |
| TAAGGCGCCG | 0.962 ± 0.031 |
| TAAGGCGGTA | 0.963 ± 0.035 |
| TAAGGCGGTC | 0.991 ± 0.098 |

| Sequence | switch fluorescence ratio |
| --- | --- |
| TAAGGCTGAA | 1.02 ± 0.039 |
| TAAGGCTTTG | 0.9987 ± 0.0068 |
| TAAGGGCCCG | 0.991 ± 0.069 |
| TAAGGGCGGT | 0.957 ± 0.032 |
| TAAGGGGAGC | 1.01 ± 0.03 |
| TAAGGGGAGG | 1 ± 0.017 |
| TAAGGGGGTA | 0.992 ± 0.039 |
| TAAGGGGTAG | 0.994 ± 0.052 |
| TAAGGGGTGT | 1.03 ± 0.027 |
| TAAGGGTCTT | 0.996 ± 0.047 |
| TAAGGGTGCC | 1.01 ± 0.03 |
| TAAGGGTTCT | 0.9916 ± 0.0089 |
| TAAGGTAAAA | 1.001 ± 0.0041 |
| TAAGGTAACG | 1.05 ± 0.12 |
| TAAGGTAAGG | 1.01 ± 0.031 |
| TAAGGTATTA | 0.972 ± 0.019 |
| TAAGGTGAGG | 1.04 ± 0.023 |
| TAAGGTGATG | 1.01 ± 0.046 |
| TAAGGTGGGA | 0.996 ± 0.03 |
| TAAGGTGGTT | 0.976 ± 0.034 |
| TAAGGTTACT | 0.977 ± 0.035 |
| TAAGGTTGGC | 1.02 ± 0.04 |
| TAAGTAGCAG | 0.997 ± 0.025 |

| Sequence | switch fluorescence ratio |
| --- | --- |
| TAAGTATTTT | 1.01 ± 0.027 |
| TAAGTCGAAA | 1 ± 0.019 |
| TAAGTCGTTG | 1.03 ± 0.12 |
| TAAGTGAAAA | 0.995 ± 0.0094 |
| TAAGTGCAAG | 1.01 ± 0.033 |
| TAAGTGGAAC | 1.002 ± 0.0063 |
| TAAGTGGGTT | 0.992 ± 0.034 |
| TAAGTGTAGC | 1.035 ± 0.0035 |
| TAAGTGTATG | 1.007 ± 0.0034 |
| TAAGTGTTGG | 1 ± 0.018 |
| TAAGTTAATA | 1.02 ± 0.016 |
| TAAGTTAGCC | 1.049 ± 0.005 |
| TAAGTTAGGT | 1.03 ± 0.1 |
| TAAGTTGTAA | 0.999 ± 0.019 |
| TAAGTTTTCA | 1.02 ± 0.023 |
| TAATAAATCT | 0.9967 ± 0.0051 |
| TAATAATCCA | 0.994 ± 0.017 |
| TAATACCCCG | 1.06 ± 0.054 |
| TAATACGTTT | 0.986 ± 0.032 |
| TAATACTATT | 1.05 ± 0.016 |
| TAATAGAATT | 1 ± 0.014 |
| TAATATAACC | 1.04 ± 0.014 |
| TAATATAGGT | 1.018 ± 0.0097 |

| Sequence | switch fluorescence ratio |
| --- | --- |
| TAATATAGTG | 1.02 ± 0.045 |
| TAATATCGGG | 0.98 ± 0.027 |
| TAATATCTTT | 0.995 ± 0.054 |
| TAATATGGGG | 1.01 ± 0.039 |
| TAATATGGTG | 0.998 ± 0.014 |
| TAATCAACGA | 1 ± 0.019 |
| TAATCAATAT | 1.013 ± 0.0017 |
| TAATCATCGA | 0.99 ± 0.017 |
| TAATCATGGT | 0.969 ± 0.024 |
| TAATCCCTTT | 1.01 ± 0.04 |
| TAATCCGGTC | 1.04 ± 0.094 |
| TAATCGTC | 0.968 ± 0.023 |
| TAATCGTGCT | 0.973 ± 0.019 |
| TAATCTAGGG | 0.985 ± 0.046 |
| TAATCTGAGT | 1.01 ± 0.025 |
| TAATGAATGT | 1.02 ± 0.04 |
| TAATGAGGGG | 0.992 ± 0.033 |
| TAATGAGTGG | 1.0154 ± 0.001 |
| TAATGATTTT | 0.967 ± 0.031 |
